Experimental data published in patent US20150110781A1.

How the values were obtained:
[1] = molecular target: Inactivated Rabies Virus Vaccine (Rabipur®, Chiron Behring GmbH & Co.) (rabies virus); assay: ELISA, plate coated with 1/500-diluted Rabipur, anti-human IgG Fcγ-HRP detection
[2] = molecular target: CVS-11 rabies virus (rabies virus) (UniProt O92284); assay: cell-based or functional assay
[3] = molecular target: Inactivated Rabies Virus Vaccine (Rabipur®, Chiron Behring GmbH & Co.) (rabies virus)

Chain of UniProt O92284 (O92284 20-524): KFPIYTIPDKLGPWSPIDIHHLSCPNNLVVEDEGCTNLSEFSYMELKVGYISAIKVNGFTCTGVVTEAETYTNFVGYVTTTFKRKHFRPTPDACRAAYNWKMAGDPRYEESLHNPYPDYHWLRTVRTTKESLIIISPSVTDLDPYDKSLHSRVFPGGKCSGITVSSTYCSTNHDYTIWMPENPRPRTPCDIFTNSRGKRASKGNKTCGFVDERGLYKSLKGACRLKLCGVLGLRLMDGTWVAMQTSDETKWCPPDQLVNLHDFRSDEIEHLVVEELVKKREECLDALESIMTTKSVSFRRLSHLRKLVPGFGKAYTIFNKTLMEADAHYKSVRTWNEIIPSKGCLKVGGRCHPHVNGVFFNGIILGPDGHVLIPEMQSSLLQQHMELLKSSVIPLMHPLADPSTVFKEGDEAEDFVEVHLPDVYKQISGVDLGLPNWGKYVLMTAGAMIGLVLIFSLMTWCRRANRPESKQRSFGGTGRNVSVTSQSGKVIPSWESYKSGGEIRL

B1: Hu1A9-1 (antibody, V domains shown)
VH: QVQLVQSGAEVKKPGASVKVSCKASGYSFTDYIMLWVRQAPGQRLEWIGDIYPYYGSTSYNLKFKGKATLTVDTSASTAYMELSSLRSEDTAVYYCARQGGDGNYVLFDYWGQGTLVTVSS
VL: DIQMTQSPSSLSASVGDRVTITCKASQNVGTTVAWYQQKPGKAPKALIYSASYRYSGVPSRFSGSGSGTDFTLTISSLQPEDFATYYCQQYNSYPFTFGQGTKLEIKR
EC50 [1]: 0.025 µg/mL

B2: Hu1A9-2 (antibody, V domains shown)
VH: QVQLVQSGAEVKKPGASVKVSCKASGYSFTDYIMLWVRQAPGQRLEWIGDIYPYYGSTSYNLKFKGKATLTVDTSASTAYMELSSLRSEDTAVYYCARQGGDGNYVLFDYWGQGTLVTVSS
VL: DIQMTQSPSSLSASVGDRVTITCKASQNVGTTVAWYQQKPGKAPKVLIYSASYRYSGVPSRFSGSGSGTDFTLTISSLQPEDFATYYCQQYNSYPFTFGQGTKLEIKR
EC50 [1]: 0.016 µg/mL

B3: Ch2G11 (antibody, V domains shown)
VH: EVQLVESGGGLVKPGGSLILSCAASGFTFSGFAMSWVRQTPEKRLEWVATISSGGTYTYSPDSVMGRFTISRDNAKNTLYLQMSSLRSEDTAMYYCARRLRRNYYSMDYWGQGTSVTVSS
VL: DVVLTQAPLSLPVNIGDQASISCKSTKSLLNSDGFTYLDWYLQKPGQSPQLLIYLVSNRFSGVPDRFSGSGSGTDFTLKISRVEAEDLGIYFCFQSNYLPFTFGSGTKLEIKR
Neutralization potency (IU/mg), FAVN [2]: 8310 IU/mg | Neutralization potency (IU/mg), RFFIT [2]: 1260 IU/mg | IC50 [3]: 0.11 µg/mL

B4: Ch1A9 (antibody, V domains shown)
VH: EIQLQQTGPELVKPGASVKISCKASGYSFTDYIMLWVKQSHGKSLEWIGDIYPYYGSTSYNLKFKGKATLTVDKSSSTAYMQLNSLTSEDSAVYYCARQGGDGNYVLFDYWGQGTTLTVSS
VL: DIVMTQSQKFMSTSVGDRVSVTCKASQNVGTTVAWYQQKPGQSPKALIYSASYRYSGVPDRFTGSGSGTDFTLTISNVQSEDLAEYFCQQYNSYPFTFGSGTKLEIKR
Neutralization potency (IU/mg), FAVN [2]: 533 IU/mg | Neutralization potency (IU/mg), RFFIT [2]: 1260 IU/mg | EC50 [1]: 0.052 µg/mL
